The text below walks through data of patent publication US20030143198.

The target of data set [1] is Human precursor IL-18 expressed as an N-terminal hexa-histidine tagged fusion.
Data set [2] concerns the target Human precursor IL-18 (Pro-IL-18), co-expressed in E. coli from the bicistronic pET28 cassette.
The target in data set [3] is Ubiquitin-IL-18 fusion (76 amino acid ubiquitin fused to the N-terminus of mature human IL-18).

B1: 6-his tagged N-terminally truncated caspase 4 (protein)
chain: MGHHHHHHGALKLCPHEEFLRLCKERAEEIYPIKERNNRTRLALIICNTEFDHLPPRNGADFDITGMKELLEGLDYSVDVEENLTARDMESALRAFATRPEHKSSDSTFLVLMSHGILEGICGTVHDEKKPDVLLYDTIFQIFNNRNCLSLKDKPKVIIVQACRGANRGELWVRDSPTSLEVASSQSSENLEEDAVYKTHVEKDFIAFCSSTPHNVSWRDSTMGSIFITQLITCFQKYSWCCHLEEVFRKVQQSFETPRAKAQMPTIERLSMTRYFYLFPGN
Consider B1, for which, in data set [1], the “cleavage of prodomain, SDS-PAGE analysis” value is “The cleavage reaction of prodomain was completed >90 % according to SDS-PAGE analysis”. In addition, in data set [2], the “cleavage to mature IL-18 on co-expression in E. coli” value is “Cleavage to mature IL-18 with caspase-4 is complete by 4 hours at 37 °C or by 18 hours at 29 °C”.

B2: Ubiquitin protease 1 (Ubp-1), full-length (protein)
chain: MDLFIESKINSLLQFLFGSRQDFLRNFKTWSNNNNNLSIYLLIFGIVVFFYKKPDHLNYIVESVSEMTTNFRNNNSLSRWLPRSKFTHLDEEILKRGGFIAGLVNDGNTCFMNSVLQSLASSRELMEFLDNNVIRTYEEIEQNEHNEEGNGQESAQDEATHKKNTRKGGKVYGKHKKKLNRKSSSKEDEEKSQEPDITFSVALRDLLSALNAKYYRDKPYFKTNSLLKAMSKSPRKNILLGYDQEDAQEFFQNILAELESNVKSLNTEKLDTTPVAKSELPDDALVGQLNLGEVGTVYIPTEQIDPNSILHDKSIQNFTPFKLMTPLDGITAERIGCLQCGENGGIRYSVFSGLSLNLPNENIGSTLKLSQLLSDWSKPEIIEGVECNRCALTAAHSHLFGQLKEFEKKPEGSIPEKLINAVKDRVHQIEEVLAKPVIDDEDYKKLHTANMVRKCSKSKQILISRPPPLLSIHINRSVFDPRTYMIRKNNSKVLFKSRLNLAPWCCDINEINLDARLPMSKKEKAAQQDSSEDENIGGEYYTKLHERFEQEFEDSEEEKEYDDAEGNYASHYNHTKDISNYDPLNGEVDGVTSDDEDEYIEETDALGNTIKKRIIEHSDVENENVKDNEELQEIDNVSLDEPKINVEDQLETSSDEEDVIPAPPINYARSFSTVPATPLTYSLRSVIVHYGTHNYGHYIAFRKYRGCWWRISDETVYVVDEAEVLSTPGVFMLFYEYDFDEETGKMKDDLEAIQSNNEEDDEKEQEQKGVQEPKESQEQGEGEEQEEGQEQMKFERTEDHRDISGKDVN
Take B2: the “processing of Ub-IL-18 to mature IL-18 on co-expression in E. coli (Western blot)” value in data set [3] is “efficient processing of Ub-IL-18 to mature active IL-18”.

B3: 6-his tagged N-terminally truncated caspase 5 (protein)
chain: MGHHHHHHGILKLCPREEFLRLCKKNHDEIYPIKKREDRRRLALIICNTKFDHLPARNGAHYDIVGMKRLLQGLGYTVVDEKNLTARDMESVLRAFAARPEHKSSDSTFLVLMSHGILEGICGTAHKKKKPDVLLYDTIFQIFNNRNCLSLKDKPKVIIVQACRGEKHGELWVRDSPASLAVISSQSSENLEADSVCKIHEEKDFIAFCSSTPHNVSWRDRTRGSIFITELITCFQKYSCCCHLMEIFRKVQKSFEVPQAKAQMPTIERATLTRDFYLFPGN
Turning to B3, the “cleavage of prodomain, SDS-PAGE analysis” value in data set [1] is given as “The cleavage reaction of prodomain was completed >90 % according to SDS-PAGE analysis”. In data set [2], the “cleavage to mature IL-18 on co-expression in E. coli” value was “cleavage to mature EL-18 with caspase-5 is complete by 18 hours at 29 °C”.
